Results as given in patent publication WO2021190480A1 (dated 2021).

Target: T1, His-tagged human TROP-2 protein (TROP-2-His), Sino Biological cat# 10428-H08H (human, UniProt P09758 27-274)
T1 construct: also called TROP-2His protein; human TROP-2His antigen; not shown: His tag
T1 sequence (looked up): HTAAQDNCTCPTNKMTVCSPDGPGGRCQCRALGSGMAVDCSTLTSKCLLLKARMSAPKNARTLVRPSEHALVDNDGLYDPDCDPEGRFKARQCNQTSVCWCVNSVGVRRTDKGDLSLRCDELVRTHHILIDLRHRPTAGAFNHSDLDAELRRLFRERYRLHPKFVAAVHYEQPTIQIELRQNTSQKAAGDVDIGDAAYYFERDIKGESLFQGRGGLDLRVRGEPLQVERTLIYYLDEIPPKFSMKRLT
Assay: indirect ELISA, TROP-2-His coated at 1 ug/ml

- EC50: 0.56 nM
B1: murine monoclonal antibody M1 (antibody, V domains shown)
VH: QVQLQQPGAELVRPGASVKLSCRASGYTFTNYWMNWVKQRPEQGLEWIGRIDPNDSETHYNQKFKDRAILTVDKASNTAYMQLSGLTSEDSAVHYCARSGFGSTYWFFDVWGAGTTVTVSS
VL: DIVMTQSHKFMSTSVGDRVSITCKASQDVSTAVAWYQQKPGQSPKLLIYSASYRYTGVPDRFAGSGYGTDFTFTISSVQTEDLTVYHCQQHYSTPLTFGPGTRLELK
